Data from patent publication US20050059087A1, “Antibodies directed to the deletion mutants of epidermal growth factor receptor and uses thereof” (priority 2003, published 2005).

Experiments:
[1] = target: T1, native form of EGFRvIII stably expressed on NR6 cells (NR6 M cells) (Homo sapiens, UniProt P00533, DELINS30-297G); experiment: Native cell binding assay by FMAT, NR6 M cells; format: cell-based; conditions: total fluorescent intensity
T1 construct: expressed in transfected cells; host or cells: NR6 murine fibroblasts (NR6 M)

EGFRvIII-peptide-OVA = target: T2, EGFRvIII-peptide-OVA (Homo sapiens, UniProt P00533, DELINS30-297G); experiment: B-cell culture supernatant ELISA on EGFRvIII-peptide-OVA; format: binding; conditions: Table 3.8
T2 construct: purchased R&D Systems (custom synthesis); host or cells: synthetic peptide
Description: B-cells from the above-discussed animals were harvested and cultured. Those secreting EGFRvIII-peptide specific antibodies were isolated as described in Babcook et al., Proc. Natl. Acad. Sci. USA, 93:7843-7848 (1996). ELISA was used to identify primary EGFRvIII-peptide-OVA-specific wells. About 5 million B-cells were cultured from XenoMouse animals in 245 96 well plates at 500 or 150 or 50 cells/well, and were screened on EGFRvIII-peptide-OVA to identify the antigen-specific wells.

[2] = target: T3, EGFRvIII receptor on NR6 M cells (Homo sapiens, UniProt P00533, DELINS30-297G); experiment: Internalization assay of B-cell culture supernatants (FMAT, glutathione); format: cell-based
T3 construct: expressed in transfected cells; host or cells: NR6 murine fibroblasts (NR6 M)
Description: The top 60 native binding B cell culture supernatants were further assayed for their ability to internalize the receptor. NR6 M cells were seeded at 8000 cells/well into 96 well FMAT plates and incubated overnight. Media was removed and 10-15 μl B-Cell culture supernatant in a total volume of 30 μl media, in duplicate was added. Next, 15 μl of secondary antibody (SS Alexa 647 anti-human IgG Fab at 1.5 μg/ml final concentration) was added and the mixture was incubated on ice for 1 hr. An irrelevant B-Cell Culture supernatant was used to see the effect of the culture media. Human anti-EGFRvIII mAb 13.2.1 was used as a positive control starting at 1 μg/ml (final concentration) and negative control was PK 16.3.1 (human anti-KLH IgG2 antibody) at the same concentration. After incubation, the cells were washed with cold PBS, 50 μl media was added to all of the wells, one of the duplicates were incubated at 37° C. for 30 mins while the other duplicate remained on ice. After the incubations media was removed, 100 ul of cold 50 mM glutathione was added to the set incubated at 37° C. and 100 μl of cold media added to the other set, both sets were then left on ice for 1 hr. The cells were then washed with 100 μl cold PBS and then fixed with 1% paraformaldehyde and read in FMAT. The results were expressed as % intermalized, calculated as total fluorescence in the presence of glutathione/total fluorescence in the absence of glutathione X 100.

OVA = target: T4, OVA (Gallus gallus, UniProt P01012); experiment: B-cell culture supernatant control ELISA on OVA; format: binding; conditions: Table 3.8
T4 sequence (P01012 1-386): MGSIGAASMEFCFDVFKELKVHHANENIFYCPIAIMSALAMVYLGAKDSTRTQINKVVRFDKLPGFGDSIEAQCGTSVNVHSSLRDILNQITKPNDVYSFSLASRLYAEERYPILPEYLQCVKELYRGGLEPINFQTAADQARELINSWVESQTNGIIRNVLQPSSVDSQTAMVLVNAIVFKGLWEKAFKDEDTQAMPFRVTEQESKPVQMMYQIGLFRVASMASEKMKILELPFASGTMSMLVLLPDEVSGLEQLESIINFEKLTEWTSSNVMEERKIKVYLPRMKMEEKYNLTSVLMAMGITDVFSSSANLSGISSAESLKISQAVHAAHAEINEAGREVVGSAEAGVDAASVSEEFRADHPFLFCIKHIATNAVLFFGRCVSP
Text: 244 of EGFRvIII-peptide-OVA-Elisa positive wells of OD>0.5 were screened again on EGFRvIII-peptide-OVA and on OVA to confirm that they were EGFRvIII-peptide specific.

[3] = target: T5, NR6 Wt cells (NR6 cells expressing EGF receptor) (Homo sapiens, UniProt P00533); experiment: Native cell binding assay by FMAT, NR6 Wt cells; format: cell-based; conditions: total fluorescent intensity
T5 construct: expressed in transfected cells; host or cells: NR6 murine fibroblasts (NR6 Wt)

- FMAT native binding to NR6 M cells [1]: 84024
- 1′ VIII-pep-OVA OD (EGFRvIII-peptide-OVA): 2.1501
- 2′ VIII-pep-OVA OD (EGFRvIII-peptide-OVA): 2.8208
- With glutathione FL1 × count ([2]; 37° C. for 30 mins, then 50 mM glutathione): 8708
- % internalized, (glut+/glut−) × 100 ([2]; NR6 M cells, 37° C. 30 mins): 31.5%
- No glutathione FL1 × count ([2]; set kept on ice, no glutathione): 27648
- OVA OD (OVA): 0.1515
- FMAT native binding to NR6 Wt cells [3]: 0
B1: 129A7: B-cell culture supernatant well (antibody, V domains shown)
VH: QVQLVESGGGVVQPGRSLRLSCAASGFTLSSYGMHWVRQAPGKGLEWVAVMSYDGSKEDYADSVKGRFTISRDNSENTLYLQMNSLRAEDTAVYYCVSEGYCSSRSCYKYYYYGMDVWGQGTTVTVSS
VL: DIVMTQSPLSLPVTPGEPASISCRSSQSLLYRNGNNYLDWYLQKPGQSPQLLIYLGSNRASGVPDRFSGSGSGTDFTLNISRVEAEDVGHYYCMQALQTPRTFGQGTKVEIK
